Test results published in US20260209318A1 (NATIONAL UNIVERSITY OF SINGAPORE, published 2026).
Positions count from the first letter of the chain named.

B1: Ab21 (E6.1) (antibody, V domains shown)
VH: QVQLVQSGAEVKKPGSSVEVSCKASGGTFSSYAISWVRQAPGQGLEWMGRIIPSLGITNSAENFQGRVTITADKSTSTVYMELSSLRSEDTAVYYCARDFHPLYQSCSSTSCYDEWEPRMDVWGQGTTVTVSS
VL: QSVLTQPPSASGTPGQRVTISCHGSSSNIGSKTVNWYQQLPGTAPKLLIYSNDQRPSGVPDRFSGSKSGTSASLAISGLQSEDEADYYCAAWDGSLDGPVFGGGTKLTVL
B2: Ab23 (B10.1) (antibody, V domains shown)
VH: QVQLVQSGAEVKKPGSAVKVSCKASGGTFSSYPITWVRQAPGQGLEWVGRAIPILGITSTAQKFQGRVTIIADKSTSTAYMELSRLRSEDTAVYYCARDFHPRYQDCDSTSCYDQWEPRMDVWGQGTTVTVSS
VL: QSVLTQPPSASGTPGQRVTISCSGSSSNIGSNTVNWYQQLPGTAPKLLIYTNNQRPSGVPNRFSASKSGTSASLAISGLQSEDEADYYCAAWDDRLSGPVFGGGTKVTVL
B3: Ab4 (G7.2) (antibody, V domains shown)
VH: QVQLVQSGAEVKKPGSSVKVSCEASGGTFSTYAISWVRQAPGQGLEWMGRIIPIFGIANYAQKFQGRVTITADKSTSTAYMEVSSLRSEDTAVYYCATTFYDHSSTYRTHSMDVWGQGTTVTVSS
VL: DIQMTQSPSSLSASVGDRVTITCRASQSISNYLNWYQQRPGKAPKLLIYAASGLQSGVPSRFSGSGSGTNFTLTISTLHPEDFATYYCQQTHSTPRAFGGGTKVEIK
B4: Ab19 (F5.1) (antibody, V domains shown)
VH: EVQLVESGGGLVKPGGSLRLSCAASGFIFSRNGMHWVRQAPGKGLEWVSSIDNDGTYMYYADSVRGRFTVSRDNAKNSLFLQLNSLRAEDTAVYYCARDRFGYYDALTDSYNAGYFDSWGQGTLVTVSS
VL: DIQMTQSPSSLSASVGDSVTITCRASQDIYNYLAWFQQKPGKAPKSLIYTASKLESGVPSKFSGSGSGTDFTLTISSLQPEDFATYYCQQYHSSPITFGQGTRVEIK
B5: Ab22 (C9.1) (antibody, V domains shown)
VH: QVQLVQSGAEVKKPGSSVKVSCKASGGTFSSYGISWVRQAPGQGLEWMGRIIPSLSITNSAEKFQGRVTITADKSTSTAYMELSRLRSEDTALYYCARDFHPRYEFCDSTSCYDEWEPRMDVWGQGTTVTVSS
VL: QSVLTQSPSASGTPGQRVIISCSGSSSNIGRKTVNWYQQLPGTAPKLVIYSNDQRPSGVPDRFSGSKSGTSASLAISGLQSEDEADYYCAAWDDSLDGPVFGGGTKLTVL
B6: Ab25 (H10.2) (antibody, V domains shown)
VH: B5 VH with G26R, S31N, G33A, I70M, A79V, L93V, F106Y, D108S
VL: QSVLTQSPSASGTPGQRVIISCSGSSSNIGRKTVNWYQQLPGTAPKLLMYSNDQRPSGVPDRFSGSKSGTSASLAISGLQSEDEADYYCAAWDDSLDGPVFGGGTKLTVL
B7: Ab20 (C6.1) (antibody, V domains shown)
VH: EVQLVESGGGLVKPGGSLRLSCAASGFAFSTNGMNWVRQVPGKGLEWVSSISSTSEYTYYTESVKGRFTISRDNAKNSLFLQMNSLRAEDTAVYYCVRDRFGYYDVLASSYNVGFFQSWGQGALVTVSS
VL: DIQMTQSPSSLSASVGDGVTITCRASQDISNNLAWFQQKPGKAPKCLIYSASSLQSGVPLKFRGSGSGTDFTLSITSLDPEDFATYYCQQYISYPITFGQGTRLDIK
B8: Ab11 (D4) (antibody, V domains shown)
VH: QVQLQESGPRLVKPSGTLSLSCAVSGGPFSNTNWWSWIRQTPGKGLEWIGEINDSGNTVYNPALKSRVTMSVDKSKKQFSLNLHSLTAADTAVYFCARVWGHFDYWGQGVRVTVSS
VL: DIQMTQSPSSLYASVADRVTITCRASQGISNSLAWYQQQPGKAPQLLLYAASTLESGVPSRFSGSGSGTDFTLTISSLQPEDFATYYCQQYYSLRTFGGGTKVEIK
B9: Ab9 (C68) (antibody, V domains shown)
VH: QVQLVQSGAEVKKPGASVKVSCKISGYTLTDFSIHWVRQAPGKGLEWMAGFDPEHRETIFAQKFQGRVAMTEATSTDTAYMELSSLRSDDTAVYYCATTGDFDSWRGYYLWGQGTLVTVSA
VL: DIQLTQSPSSVSASVGDSVTITCRASQGISRWLAWYQQKPGKAPRLLIYSASTLQSGVPSRFSGSGSGTDFTLTISSLQPDDFATYYCQHTNNFPFSFGPGTKVDIK
B10: Ab7 (G1) (antibody, V domains shown)
VH: EVQLVESGGGLVKPGGSLRLSCAASGFTVSTYIINWVRQAPGKGLEWVSSITSESDYMFDADSVRGRFTISRDNAKNLVYLQMNSLRAEDTAVYYCARDQGAYSGYDLSPGGDAFDVWGQGTMVTVSS
VL: DIQMTQSPSTLSASVGDRVTITCRASQSISTWLAWYQQKPGKAPKLLIYKASNLESGVPSRFSGSGSGTEFTLTISRLQPDDSATYCCQHYNSYPYTFGQGTKVEIK
B11: Ab8 (B9) (antibody, V domains shown)
VH: EVQLVQSRAEVKKPGESLKISCKGSGYSFTTYWIGWVRQMPGKGLEWMGIIRPGDSDTRYSPSFQGQVTISADKSITTAYLQWSSLKASDTAMYYCAMTYSGDQYDFWGQGTVVTVSS
VL: B10 VL with S30H, K39T, N53L, R77S, D81G, S83F, C87Y, P95S, Y96H
B12: Ab14 (F9) (antibody, V domains shown)
VH: EVQLVESGGGLVQPGGSLRLSCATSGFTFDDFAMHWVRQGPGKGLEWVSGISWNSGKIAYTDSVKGRFSISRDNAKNSLYLQMNSLRPEDTALYYCTKDHAPSAILGDILTGFDPWGQGTLVT
VL: DIQMTQSPVSLSASVGDRVTITCRASQSISVYLNWYQQKPGKAPKLLMYAASILQSGVPSRFSGSGSATDFTLTITSLQPEDFATYFCQQSFTMPPTFGQGTNLEIK
B13: Ab12 (H5) (antibody, V domains shown)
VH: EVQLLESGGGLVQPGGSLRLSCAASGFTFSGSDMSWVRQAPGKGLEWVSVIGGSGTYAYYSDSVKGRFTISRDNSKNMLFLQMNSLRAEDTAIYYCAKETGFLWFGELLDSWGQGALVTVSS
VL: DIQMTQSPSSLSASVGDRVTITCRASEAISNSLAWYQQRPGKAPRLLLYAAATLESGVPPRFSGSGSGTDFTLTISTLQPEDFATYYCQQYYSPPPRTFGQGTKVEIK
B14: Ab6 (K23) (antibody, V domains shown)
VH: EVQLVESGGGLVQPGGSLRLSCSASGFTFNNYVMHWVRQAPGKGLEYVSAINSNGGSTYYAGSVKGRFTISRDNSNNTLYLQMSSLRAEDTAVYYCIKDAGYYSSLGVDSWGQGTLVTVSS
VL: EIVLTQSPATLSLSPGERATLSCRASQSVGSYLAWFQQKPGQAPRLLIYDASYRATGIPARFSGSGSGTDFTLTISSLEPEDVGIYYCQQRSNWPQTFGGGTKVDIK
B15: Ab26 (G4.2) (antibody, V domains shown)
VH: QVQLVQSGAEVKKPGSSVKVSCKASGGTFSSHTVSWVRQAPGQGLEWMGRIIPPFGIVNYAQKFQGRVTMTADESTSTAYMELSSLRSEDTAVYYCARSNVVVVTEAGWFDPWGQGTLVTVSS
VL: DIQMTQSPSSVSASVGDRVSISCRASQDISSSLAWYQQKPGQAPKVLIYDASTLQSGVPSRFSGSGSGTDFTLTISNLRPDDFATYFCQQAHSFPFTFGPGTKVDIR
B16: Ab13 (D10) (antibody, V domains shown)
VH: EVQLVESGGGLVQPGRSLRLSCAASGFTFDEYAMHWVRQAPGKGLEWVSGISFNSGSVGYAGAAKGRFTISRDNAKKSLYLEMNSLRDEDTAFYYCAKDRGEHWLVRLFDSWGQGTLVTVSS
VL: DIQMTQSPSTLSASVGDRVTITCRPSQSIDRWLAWYQQKPGKAPTLLISAASSLETGVPSRFSGSGSGTEFTLTISSLQPDDFATYYCQQYNGYSMFGPGTKVEIK
B17: Ab3 (C2.2) (antibody, V domains shown)
VH: QVQLVQSGAEVKKPGSSVRVSCEASGDTFSRYAISWVRQAPGQGLEWMGRIIPMFGMANSAQKFQARVTISADKSTSTAYMEVSSLRSEDTAVYYCATDTFYPNDGVHRMEYWGQGALVIVSS
VL: DIQMTQSPSSLSASVGDRVTITCRASQTISNYLNWYQQKPGKAPNLLIYGTSILQSGVPSRFSGSGSGTDFTLTISSLQPEDFATYYCQQSHSAPRTFGPGTKVDIK

What follows are binders tested against BQ.1.1 spike protein (SARS-CoV-2 variant BQ.1.1, UniProt P0DTC2 14-1273) (assay: cell-based or functional assay).

Binder	IC50 (pVNT) [ng/ml]	concentration required to effectively neutralize (pVNT) [ng/ml]	times less than the concentration of E7 [times]
B1	≤ 550	–	–
B2	≤ 550	–	–
B3	≤ 300	48.4	~11
B4	≤ 550	–	–
B5	≤ 550	–	–
B6	≤ 550	–	–
B7	≤ 550	–	–
B8	≤ 550	–	–
B9	≤ 550	–	–
B10	≤ 550	–	–
B11	≤ 550	–	–
B12	≤ 550	–	–
B13	≤ 550	–	–
B14	≤ 550	–	–
B15	≤ 550	–	–
B16	≤ 550	–	–
B17	≤ 300	271	~2
